Laboratory results from the supplement of paper PMC12764529.
± gives the half width of the 95% confidence interval.

Key:
[1] = folding stability dG unfold from trypsin proteolysis; higher = more stable
How it was run: (§1)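 Bayesian fitting of sequencing counts gave K50 for each design. Unfolding free energy followed by setting this against a sequence-predicted unfolded-state K50 and a shared folded-state K50, either per protease or with trypsin and chymotrypsin combined. The designs, under 80 residues and lacking cysteine, were digested in a PA-tagged cDNA display format at 11 threefold-diluted protease concentrations and without protease, and only those with AlphaFold2 dimer inter-PAE above 15 were kept.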

[2] = folding stability dG unfold from chymotrypsin proteolysis; higher = more stable
How it was run: as §1

[3] = folding stability dG unfold (combined trypsin and chymotrypsin); higher = more stable
How it was run: as §1

Sequence	folding stability dG unfold [1] [kcal/mol]	folding stability dG unfold [2] [kcal/mol]	folding stability dG unfold [3] [kcal/mol]
SAGGSAGGSAGGSMTVTLSREELLRLLGVPPGVPIPESVLAKIKSIETLPDGSVTVTIGSAGGSAGGSAGGS [r4_369_JUSTAS]	1.98 ± 0.027	3.118 ± 0.027	2.74 ± 0.11
SAGGSAGGSAGGSMTVTVTLKDGSTRTFAVPADAPLTLEQLEAAGYPAADIAEVTVTAESAGGSAGGSAGGS [r10_565_JUSTAS]	1.88 ± 0.049	3.292 ± 0.021	2.96 ± 0.038
SAGGSAGGSAGGSMVKVEKNGEGVVTTTTKYFFYPSTGKWSSETITTTKKVPKDEPFPLSAGGSAGGSAGGS [r4_215_JUSTAS]	-0.159 ± 0.14	-0.0539 ± 0.33	-0.0856 ± 0.23
SAGGSAGGSAGGSNDNVVPITILFVDPGKDDRLYLREIRLRIYENGDIEAEVKVYELPLSAGGSAGGSAGGS [r10_598_TrMRF]	2.87 ± 0.11	4.12 ± 0.075	3.68 ± 0.1
SAGGSAGGSAGGSPDGWKFKMEMFTVKVPGAKITIPDGKSITLPPGKEVTIMIMTYVPPSAGGSAGGSAGGS [r4_26_TrROS]	2.25 ± 0.068	3.81 ± 0.086	3.47 ± 0.092
SAGGSAGGSAGGSPGNYREVEIEFRDPDDNGKEVKIEIWVQPGMPEEQIKEFVRELLRRSAGGSAGGSAGGS [r4_442_TrROS]	0.942 ± 0.18	1.4 ± 0.19	1.32 ± 0.25
SAGGSAGGSAGGSPKVYVELRFKLPNNLYVEIRYEIDPEKPGYVDWEVRLFDENGNPLGSAGGSAGGSAGGS [r4_297_TrMRF]	3.61 ± 0.23	4.74 ± 0.096	4.56 ± 0.16
SAGGSAGGSAGGSPNWVWILITVKITFPIYKYDPDGKPLEPIEITIEFTVLIRIPPGDFSAGGSAGGSAGGS [r4_425_TrROS]	3.63 ± 0.19	5.34 ± 0.18	5.15 ± 0.27
SAGGSAGGSAGGSPSETLEVTLADGTRLTVTRNADGSLTVTVEPAPPPPVVVFKSPEELSAGGSAGGSAGGS [r4_120_TrROS_Hall]	1.44 ± 0.025	0.623 ± 0.14	1.14 ± 0.096
SAGGSAGGSAGGSPVAAKTLSKSTSLLPNGKVKTSTTTAFPTGETTTTTTTTPLSLTLTSAGGSAGGSAGGS [r10_1206_JUSTAS]	-0.654 ± 0.27	0.158 ± 0.17	-0.0493 ± 0.12
SAGGSAGGSAGGSPVSPKIVTTDPGPNVITTVYYSPEDGKVLSTSTTVVPPLPPGEILTSAGGSAGGSAGGS [r10_1051_JUSTAS]	1.45 ± 0.085	0.817 ± 0.21	1 ± 0.32
SAGGSAGGSAGGSQDLVKITIKLPGGEEKEITTPAEEIDKAIKELGIKKEDVEILEITEVSAGGSAGGSAGG [r7_211_JUSTAS]	1.13 ± 0.093	1.56 ± 0.051	1.34 ± 0.24
SAGGSAGGSAGGSSEPVVILVPVLPDAEEAVVDIGGHPALVKRFPDSPLAAITVPKELLSAGGSAGGSAGGS [r4_430_TrMRF]	0.0985 ± 0.033	-0.581 ± 0.048	-0.149 ± 0.066
SAGGSAGGSAGGSSKNRPLVIIDYPFYTSNPDYIVRATFINYLDENNNITEVKVEVLKASAGGSAGGSAGGS [r4_75_TrMRF]	2.3 ± 0.22	3.14 ± 0.095	2.59 ± 0.27
SAGGSAGGSAGGSSLASDPTVPPDEPRTVTVLEPEPGGRLRVVTYEETPAGRRPVSALLSAGGSAGGSAGGS [r10_288_JUSTAS]	-0.782 ± 0.95	1.09 ± 0.26	0.336 ± 0.21
SAGGSAGGSAGGSSMAIKKVSEFLLRPENGELIKVTVYRKPGPETIVTVIGDKTYTFEPSAGGSAGGSAGGS [r4_114_JUSTAS]	-0.855 ± 0.25	0.336 ± 0.11	0.0399 ± 0.1
SAGGSAGGSAGGSSMITVSTTSFPDGTRKVTITEPGTGKPLKTVDMPPSESVSAVKEKLSSAGGSAGGSAGG [r7_633_JUSTAS]	-0.012 ± 0.1	-0.67 ± 0.2	-0.245 ± 0.2
